From the RNAGym collection of RNA variant scans (doi:10.1073/pnas.2313332121)

B1: TPR t1 (parent)
chain: GACCAAUCUGCCCUCAGAGCUCGAGAACAUCUUCGGAUGCAGAGGAGGCAGGCUUCGGUGGCGCGAUAGCGCCAACGUCCUCAACCUCCAAUGCAUCCCACCACAUGAUGAUGCCUGAAGAGCCUUGGUUUUUUG

Variants of: B1
Assay: polymerase ribozyme fitness, log enrichment relative to wild type (log ratio); higher = more active; in vitro selection for triplet polymerase activity
Method in brief: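 Mutant libraries for each subunit of a heterodimeric triplet polymerase ribozyme were made by PCR and then transcribed. Each library underwent one round of in vitro selection in triplicate: annealing with a biotinylated primer, the partner subunit and triplets, frozen incubation at −7 °C, gel excision of extended constructs, streptavidin-bead capture and RT-PCR. Input and output libraries were Illumina-sequenced, and only genotypes with ≥10 input reads and ≥1 read per output were kept. Fitness is the logarithm, base 2, of genotype enrichment over wild-type enrichment, computed from inverse-variance-weighted replicate averages.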

**Q.** Which “polymerase ribozyme fitness (log ratio)” value does the source give for GACCAACCUCCCCUCAGAGCUCGAGAACAUCUUCGGAUGCAGAGGAGGCAGGCUUCGGUCGCGCGAUAGCGCCAACGUCCUCAACCUCCAAUGCAUCCCACUACAUGAUGACGCCUGAAGAGCCUUGGUUUUUUG [U7C G10C G60C C102U U112C] here?
**A.** -2.68

**Q.** With GACCAAUCUGCCCUCAGAGCUCGAGAACAUCUUCGGAUGCAGAGGAGGCAGGCUUCGGUAGCGCGUUAGCGCCAACGUCCUCAACCUCCAAUGCAUCCCACCACAUGAUGCUGCCUGAAGAGCCUUGGUUUUUUG [G60A A66U A111C] as the variant, how does the “polymerase ribozyme fitness (log ratio)” value read?
**A.** -2.41

**Q.** With GACCAAUCUGCCCUCAGAGCUCGAGAACAUCUUGGGAUGCAGAGGAGGCAGGCUUCGGUGGCGCGAUAGCGCCAACGUCCUCAACCUCCAAUGCAUCCCACCACAUGAUGAUGCAUGAAGAGCCUUGGUUUUUUG [C34G C115A] as the variant, how does the “polymerase ribozyme fitness (log ratio)” value read?
**A.** -5.21

**Q.** With GACCAAUCUGCCCUCAGAGCUCGAGAACAUCUUCGGAUGCAGAGGAGGCAGGGUUCGGUGGCGCGAUAGCGCCAACGUCCUCAACCUCCAAUGCAUCCCACCACAUGAUAAUGCCUGAAGAGCCUUGGUUUUUUG [C53G G110A] as the variant, how does the “polymerase ribozyme fitness (log ratio)” value read?
**A.** -1.16

**Q.** For GACCAAUCUGCCCUCAGAGCUCGAGAACAUCUUCGGAUGCAGAGAAGUCAGGCUUCGGUGGCGCGAUAGCGCCAACGUCCUCAACCUCCAAUACAUCCCACCACAUGAUGAUGCCUGAAGAGCCUUGGUUUUUUG [G45A G48U G93A], which “polymerase ribozyme fitness (log ratio)” value is on record?
**A.** -3.09

**Q.** Which “polymerase ribozyme fitness (log ratio)” value does the source give for GACCCAUCUGCCCUCAGAGCUCGAGAACAUCUUCGGAUGCAGAGGAGGCAGGCUUCGGUGGCGCGAUAGCGCCAACGUCCUCAACCUCCAAUGCAUCCCACCACAUGAUGAUACCUGAAGAGCCUUGGUUUUUUG [A5C G113A] here?
**A.** -1.96

**Q.** Which “polymerase ribozyme fitness (log ratio)” value does the source give for GACCAAUCUGCCCUCAGAGCUCGAGAACAUCUUCGGAUGUAGAGGAGGCAGGCUUCGGUGGCGCGAUAGCGCCAACGUCCUCAACCUCCAAUGCAUACCACCACAUGAUGAUGCCUGAAGAGCCUUGGUUUUUUG [C40U C97A] here?
**A.** -5.23

**Q.** Which “polymerase ribozyme fitness (log ratio)” value does the source give for GACCUAUCUGGCCUCAGAGCUCGAGAACAUCUUCGGAUGCAGAGGAGGCAGGCUUCGGUGGCGCGAUAGCGCCAACGUCCUCAACCUCCAAUGCAUCCCACCACAUGAUGAUGCCUGAAGAGCCUUGGUUUUUUG [A5U C11G] here?
**A.** -0.477

**Q.** For GAUCAAUCUGCCCUCAGAGCUCGAGAACAUCUUCGGAUGCAGAGGAGACAGGCUUCGGUGGCGCGAUAGCGCCAACGUCCUCAACCUCCAAUGCAUCCCACCACAUGAUGAUGCCUGAAGAGCCUUGGUUUUUUG [C3U G48A], which “polymerase ribozyme fitness (log ratio)” value is on record?
**A.** -1.92

**Q.** Which “polymerase ribozyme fitness (log ratio)” value does the source give for GACCAAUCUGCCCUCAGAGCUCGAGAACAUCUUCGGAUGCAGAGGAGGCAGGCUUCGGGGGCGCGAUAGCGCCAACGUCCUCAACCUCCAAUGCAUCCCACCACAUGAUGAUGCCUGAAGAGCCUUGGUUUUUUG [U59G] here?
**A.** -0.0797

**Q.** Which “polymerase ribozyme fitness (log ratio)” value does the source give for GAUCAAUCUGCCCUCAGAGCUCGAGAACAUCUUCGGGUGCAGAGGAGGGAGGCUUCGGUGGCGCGAUAACGCUAACGUCCUCAACCUCCAAUGCAUCCCACCACAUGAUGAUGCCUGAAGAGCCUUGGUUUUUUG [C3U A37G C49G G69A C73U] here?
**A.** -3.7

**Q.** For GACCAAUCUGCCCUCAGAGCUCGAGAACAUCUUCCGAUGCAGAGGAGGCAGGCUUCGGUGGCGCGAUAGCGCCAACGUCCUCAACCUCCAAUGCAUCCCACCACACGAUGAUGCCUAAAGAGCCUUGGUUUUUUG [G35C U106C G117A], which “polymerase ribozyme fitness (log ratio)” value is on record?
**A.** -5.76

**Q.** Which “polymerase ribozyme fitness (log ratio)” value does the source give for GACCAAUCUGCCCUCAGAGCUCGAGAACAUCUUCGGAUGCAGUGAAGGCAGGCUUCGCUGGCGCGAUAGCGCCAACGUCCUCAACCUCCAAUGCAUCCCACCACAUGAUGAUGCCUGAAGAGCCUUGGUUUUUUG [A43U G45A G58C] here?
**A.** -1.24

**Q.** For GACCAAUCUGCCCUCAGAGCUCGAGAUCAUCUUUGGAUGCAGAGUAGGCAGGCUUCGGUGGCGCGAUAUCGCCAACGUCCUCAACCUCCAAUGCAUCCCACCACAUGAUGAUGCCUGAAGAGCCUUGGUUUUUUG [A27U C34U G45U G69U], which “polymerase ribozyme fitness (log ratio)” value is on record?
**A.** -5.7

**Q.** Which “polymerase ribozyme fitness (log ratio)” value does the source give for GACCAAUCUGCCCUCAGAGCUCGAGAACAUCUUCGGAUCCAGAGGAGGCAGGCUUCGGUGGCGCGAUAGCGCCAACGUCCUCAACCUCCAAUGCAUCCCACCACAUGAUGCUACCUGAAGAGCCUUGGUUUUUUG [G39C A111C G113A] here?
**A.** -3.44

**Q.** With GACCAAUCUGCCCUCAGAGCUCGAGAACAUCUUCGGAUGCAGAGGAGGCAGGCUUCGGUGGCGCGAUAUCGCCAACGUCCUCAACCUCCAAUGCAUCCCACCACAUGAUGAUGCCUGCAGAGCCUUGGUUUUUUG [G69U A118C] as the variant, how does the “polymerase ribozyme fitness (log ratio)” value read?
**A.** -2.03

**Q.** With GACCAAUCUGCCCUCAGAGCUCGAGAACAUCUUCGGAUGCAGAGGAGGCAGGCUUCGGUGGCGCGAUAGCGCCAACGUCCUCAACCUCCACUGCAUCCCACCAUAUGAUGAUGCCUGAAGAGUCUUGGUUUUUUG [A91C C104U C123U] as the variant, how does the “polymerase ribozyme fitness (log ratio)” value read?
**A.** 0.398

**Q.** For GACCAAUCUGCCCUCAGAGCUCGAGAACAUCUUCGGAUGCAGAGGAGGCAGGCUUCGGUGGCGCGAUAGCGACAACGUCCUCAACCUCCAAUGCAUCCCACCACAUGAUGAAGCCUGAAGAGCCUUGGUUUUUUG [C72A U112A], which “polymerase ribozyme fitness (log ratio)” value is on record?
**A.** 1.59

**Q.** With GACCAAUCUGCCCUCAGAACUGGAGAACAUCUUCGGAUGCAGCGGAGGCAGGCUUCGGUGGCGCGAUAGCACCAACGUCCUCAACCUCAAAUGCAUCCCACCACAUGAUGAUGCCUGAAGAGCCAUGGUUUUUUG [G19A C22G A43C G71A C89A U125A] as the variant, how does the “polymerase ribozyme fitness (log ratio)” value read?
**A.** -6.8

**Q.** Which “polymerase ribozyme fitness (log ratio)” value does the source give for GACCAAUCUGCCCUCAGAGCUCGAGAACAUCUUCGGAUGCAGAGGAGGCAGGCUUCGGUGGCGCGAUAGCGCCAACGUCCUCAACCUCCAACGCAUCCCACCACAUGAUGAUACCUGAAGAGCCUUGGUUUUUUG [U92C G113A] here?
**A.** -1.23

**Q.** Which “polymerase ribozyme fitness (log ratio)” value does the source give for GAUCAUUCUGCCCUCAGAGCUCGAGAACAUCUUCGGAUGCAGAGGAGACAGGCUUCGGUGGCGCGAUAGCGCCAACGUCCUCAACCUCCAAUGCAUCCCACCACAUGAUGAUGCUUGAAGAGCCUUGGUUUUUUG [C3U A6U G48A C115U] here?
**A.** -2.28
